The text below walks through data of patent US20220040297A1 (Chugai, published 2022).

To fix the notation:
B1: CE115HA000 S52cA one-arm antibody (antibody, human IgG1, kappa, L234A L235A, N297A, name in Kabat numbering)
heavy: QVQLVESGGGVVQPGRSLRLSCAASGFTFSNAWMHWVRQAPGKGLEWVAQIKAKANNYATYYAESVKGRFTISRDDSKNSLYLQMNSLKTEDTAVYYCRYVHYGAYYGVDAWGQGTTVTVSSASTKGPSVFPLAPSSKSTSGGTAALGCLVKDYFPEPVTVSWNSGALTSGVHTFPAVLQSSGLYSLSSVVTVPSSSLGTQTYICNVNHKPSNTKVDKKVEPKSCDKTHTCPPCPAPEAAGGPSVFLFPPKPKDTLMISRTPEVTCVVVDVSHEDPEVKFNWYVDGVEVHNAKTKPREEQYASTYRVVSVLTVLHQDWLNGKEYKCKVSNKALPAPIEKTISKAKGQPREPQVYTLPPSRCELTKNQVSLSCAVKGFYPSDIAVEWESNGQPENNYKTTPPVLDSDGSFFLVSKLTVDKSRWQQGNVFSCSVMHEALHNHYTQKSLSLSPDYKDDDDK
chain: EPKSSDKTHTCPPCPAPELLGGPSVFLFPPKPKDTLMISRTPEVTCVVVDVSHEDPEVKFNWYVDGVEVHNAKTKPREEQYNSTYRVVSVLTVLHQDWLNGKEYKCKVSNKALPAPIEKTISKAKGQPREPQVCTLPPSRDELTKNQVSLWCLVKGFYPSDIAVEWESNGQPENNYKTTPPVLDSDGSFFLYSKLTVDKSRWQQGNVFSCSVMHEALHNRYTQKSLSLSP
light: DIVMTQSPLSLPVTPGEPASISCRSSQSLVHSNRNTYLHWYQQKPGQAPRLLIYKVSNRFSGVPDRFSGSGSGTDFTLKISRVEAEDVGVYYCGQGTQVPYTFGQGTKLEIKRTVAAPSVFIFPPSDEQLKSGTASVVCLLNNFYPREAKVQWKVDNALQSGNSQESVTEQDSKDSTYSLSSTLTLSKADYEKHKVYACEVTHQGLSSPVTKSFNRGEC
B2: CE115HA000 Y97D one-arm antibody (antibody, human IgG1, kappa, L234A L235A, N297A, name in Kabat numbering)
heavy: B1 heavy with A55S, Y103D
chain: B1 chain
light: B1 light
B3: CE115HA000 W33F one-arm antibody (antibody, human IgG1, kappa, L234A L235A, N297A, name in Kabat numbering)
heavy: B1 heavy with W33F, A55S
chain: B1 chain
light: B1 light
B4: CE115HA000 W33A one-arm antibody (antibody, human IgG1, kappa, L234A L235A, N297A, name in Kabat numbering)
heavy: B1 heavy with W33A, A55S
chain: B1 chain
light: B1 light
B5: CE115HA000 Y59A one-arm antibody (antibody, human IgG1, kappa, L234A L235A, N297A, name in Kabat numbering)
heavy: B1 heavy with A55S, Y62A
chain: B1 chain
light: B1 light
B6: CE115HA000 T57N one-arm antibody (antibody, human IgG1, kappa, L234A L235A, N297A, name in Kabat numbering)
heavy: B1 heavy with A55S, T60N
chain: B1 chain
light: B1 light
B7: 154R4B07#1 (antibody, human IgG1, kappa, L234A L235A, N297A)
heavy: QVQLVESGGGLVQPGRSLRLSCAASGFTFSNAWMHWVRQAPGKGLEWVAQIKDRGNNYAAYYAESVKGRFTISRDDSKNSIYLQMNSLKTEDTAVYYCRYVHYGSYFFASFYFGVDIWGQGTTVTVSSASTKGPSVFPLAPSSKSTSGGTAALGCLVKDYFPEPVTVSWNSGALTSGVHTFPAVLQSSGLYSLSSVVTVPSSSLGTQTYICNVNHKPSNTKVDKKVEPKSCDKTHTCPPCPAPEAAGGPSVFLFPPKPKDTLMISRTPEVTCVVVDVSHEDPEVKFNWYVDGVEVHNAKTKPREEQYASTYRVVSVLTVLHQDWLNGKEYKCKVSNKALPAPIEKTISKAKGQPREPQVYTLPPSRCELTKNQVSLSCAVKGFYPSDIAVEWESNGQPENNYKTTPPVLDSDGSFFLVSKLTVDKSRWQQGNVFSCSVMHEALHNHYTQKSLSLSPDYKDDDDK
chain: B1 chain
light: B1 light
notes: One-arm antibody
B8: 154R3A01#4 (antibody, human IgG1, kappa, L234A L235A, N297A)
heavy: QVQLVESGGGLVQPGRSLRLSCAASGFTFSNAWMHWVRQAPGKGLEWVAQIKDRVNQYANYYAECVKGRFTISRDDSKNSIYLQMNSLKTEDTAVYYCRYVHYGLTGYFSGQGGVDAWGQGTTVTVSSASTKGPSVFPLAPSSKSTSGGTAALGCLVKDYFPEPVTVSWNSGALTSGVHTFPAVLQSSGLYSLSSVVTVPSSSLGTQTYICNVNHKPSNTKVDKKVEPKSCDKTHTCPPCPAPEAAGGPSVFLFPPKPKDTLMISRTPEVTCVVVDVSHEDPEVKFNWYVDGVEVHNAKTKPREEQYASTYRVVSVLTVLHQDWLNGKEYKCKVSNKALPAPIEKTISKAKGQPREPQVYTLPPSRCELTKNQVSLSCAVKGFYPSDIAVEWESNGQPENNYKTTPPVLDSDGSFFLVSKLTVDKSRWQQGNVFSCSVMHEALHNHYTQKSLSLSPDYKDDDDK
chain: B1 chain
light: B1 light
notes: One-arm antibody
B9: 154R3A01#3 (antibody, human IgG1, kappa, L234A L235A, N297A)
heavy: B8 heavy with T28A, C65S
chain: B1 chain
light: B1 light
notes: One-arm antibody
B10: 154R3F02#2 (antibody, human IgG1, kappa, L234A L235A, N297A)
heavy: QVQLVESGGGLVQPGRSLRLSCAASGFTFSNAWMHWVRQAPGKGLEWVAQIKDRASGYNNYYAESVKGRFTISRDDSKNSIYLQMNSLKTEDTAVYYCRYVHYAQSVSAFFQYGVDAWGQGTTVTVSSASTKGPSVFPLAPSSKSTSGGTAALGCLVKDYFPEPVTVSWNSGALTSGVHTFPAVLQSSGLYSLSSVVTVPSSSLGTQTYICNVNHKPSNTKVDKKVEPKSCDKTHTCPPCPAPEAAGGPSVFLFPPKPKDTLMISRTPEVTCVVVDVSHEDPEVKFNWYVDGVEVHNAKTKPREEQYASTYRVVSVLTVLHQDWLNGKEYKCKVSNKALPAPIEKTISKAKGQPREPQVYTLPPSRCELTKNQVSLSCAVKGFYPSDIAVEWESNGQPENNYKTTPPVLDSDGSFFLVSKLTVDKSRWQQGNVFSCSVMHEALHNHYTQKSLSLSPDYKDDDDK
chain: B1 chain
light: B1 light
notes: One-arm antibody
B11: 154R3A01#2 (antibody, human IgG1, kappa, L234A L235A, N297A)
heavy: B8 heavy with C65S, F70L
chain: B1 chain
light: B1 light
notes: One-arm antibody
B12: 154R3B01#1 (antibody, human IgG1, kappa, L234A L235A, N297A)
heavy: QVQLVESGGGLVQPGRSLRLSCAASGFTFSSAWMHWVRQAPGKGLEWVAQIKDKQNQYNAYYAESVKGRFTISRDDSKNSIYLQMNSLKTEDTAVYYCRYVHYATSDGFLPYFGVDAWGQGTTVTVSSASTKGPSVFPLAPSSKSTSGGTAALGCLVKDYFPEPVTVSWNSGALTSGVHTFPAVLQSSGLYSLSSVVTVPSSSLGTQTYICNVNHKPSNTKVDKKVEPKSCDKTHTCPPCPAPEAAGGPSVFLFPPKPKDTLMISRTPEVTCVVVDVSHEDPEVKFNWYVDGVEVHNAKTKPREEQYASTYRVVSVLTVLHQDWLNGKEYKCKVSNKALPAPIEKTISKAKGQPREPQVYTLPPSRCELTKNQVSLSCAVKGFYPSDIAVEWESNGQPENNYKTTPPVLDSDGSFFLVSKLTVDKSRWQQGNVFSCSVMHEALHNHYTQKSLSLSPDYKDDDDK
chain: B1 chain
light: B1 light
notes: One-arm antibody
B13: 154R4F08#1 (antibody, human IgG1, kappa, L234A L235A, N297A)
heavy: B7 heavy with R16H
chain: B1 chain
light: B1 light
notes: One-arm antibody
B14: 154R3A01#1 (antibody, human IgG1, kappa, L234A L235A, N297A)
heavy: B8 heavy with C65S
chain: B1 chain
light: B1 light
notes: One-arm antibody

Numbering of substitutions follows the chain as printed. Names may count otherwise.

In one experiment the target is CD3ε homodimer protein (human, UniProt P07766 23-126, limits assumed). Description: SPR Biacore T200, CD3e homodimer on CM4 chip, antibody as analyte, 25 C. On the technique in general: Surface plasmon resonance follows binding to a sensor surface in real time, without labels.
Chain of CD3ε homodimer protein (P07766 23-126 limits assumed): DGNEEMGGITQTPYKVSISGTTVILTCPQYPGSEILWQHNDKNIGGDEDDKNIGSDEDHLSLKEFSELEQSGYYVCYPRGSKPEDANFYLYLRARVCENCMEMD
Description: An appropriate amount of CD3ε homodimer protein was immobilized onto Sensor chip CM4 (GE Healthcare Japan Corp.) by the amine coupling method. Then, the antibody having an appropriate concentration was injected thereto as an analyte and allowed to interact with the CD3ε homodimer protein on the sensor chip. Then, the sensor chip was regenerated by the injection of 10 mmol/L glycine-HCl (pH 1.5). The assay was conducted at 25° C., and HBS-EP+ (GE Healthcare Japan Corp.) was used as a running buffer. […] Each parameter was calculated using Biacore T200 Evaluation Software (GE Healthcare Japan Corp.).
Specifically, when the amount of the antibody comprising CE115HA000 bound was defined as X and the amount of the H chain one-amino acid altered form bound was defined as Y, a value of Z (ratio of amounts bound)=Y/X was used.
Consider B1, for which the “KD ratio (KD of CE115HA000/KD of altered form)” value (“KD ratio” for short) is 0.67. For B2, the “KD ratio” value was 64.7.

With B3, the “KD ratio” value is 0.68.

Regarding B4, the “KD ratio” value is 23.

Consider B5, for which the “KD ratio” value is 6.74. The same measure, in the same setting: under B6 stands 9.9.

Another experiment deals with T1, biotin-labeled human CD154 (human, UniProt P29965 113-261, limits assumed, biotin-labeled).
T1 construct: also called biotinylated human CD154
T1 sequence (looked up): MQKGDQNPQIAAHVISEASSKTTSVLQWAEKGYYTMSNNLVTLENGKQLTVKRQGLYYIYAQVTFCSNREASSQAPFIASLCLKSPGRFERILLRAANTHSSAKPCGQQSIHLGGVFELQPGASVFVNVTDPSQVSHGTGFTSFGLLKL
Description: ECL competition: biotinylated CD154, CD3ε homodimer as competitor [1].
Description: Next, each obtained IgG was evaluated for its binding to CD3 and human CD154 at the same time by the competition method (electrochemiluminescence method (ECL method)).
A TBST solution containing 0.5% BSA (referred to as a blocking solution; the TBST solution was TBS (manufactured by Takara Bio Inc.) supplemented with 0.1% Tween 20) was added at 150 μL/well to streptavidin plate (MSD K.K.), and the plate was incubated at room temperature for 1 hour or longer. After removal of the blocking solution, each well was washed three times with 250 μL of a TBST solution. The antibody-antigen complex solution was added thereto at 50 L/well, and the plate was incubated at room temperature for 1 hour so that the biotinylated antigen-antibody-detection sulfo-tag antibody complex solution bound via the biotinylated antigen to the streptavidin plate. After removal of the antibody-antigen complex solution, each well was washed three times with a TBST solution, and a solution of 4× READ buffer (MSD K.K.) diluted 2-fold with water was added thereto at 150 μL/well, followed by the detection of the luminescence signal of the sulfo-tag using Sector Imager 2400 (MSD K.K.).
B7: the “Relative ECL reaction (to no antigen coating), CD3ε[+]” value is 1. For the molecule B8, the “Relative ECL reaction (to no antigen coating), CD3ε[+]” value came out at 4. For B9, the “Relative ECL reaction (to no antigen coating), CD3ε[+]” value came out at 19. Consider B10, for which the “Relative ECL reaction (to no antigen coating), CD3ε[+]” value came to 16. The same measure, in the same setting: under B11 stands 4. Turning to B12, the “Relative ECL reaction (to no antigen coating), CD3ε[+]” value was 18. As for B13, the “Relative ECL reaction (to no antigen coating), CD3ε[+]” value was 1. Regarding B14, the “Relative ECL reaction (to no antigen coating), CD3ε[+]” value turned out to be 21.
